Where two headings read alike, the source gives them in different places.
Assays:
[1] = target: T1, 4H3709-AA; experiment: two-hybrid library CCmax; details: mean of both orientations;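 also: natural log of median RNA to DNA barcode read ratio; higher means stronger binding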
T1 chain: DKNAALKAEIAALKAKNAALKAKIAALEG

[2] = target: T2, 4H675-AA; experiment: two-hybrid library CCmax;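 also: natural log of median RNA to DNA barcode read ratio; higher means stronger binding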
T2 chain: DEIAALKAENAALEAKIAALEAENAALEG

[3] = target: T3, 4H3666-AA; experiment: two-hybrid library CCmax; details: mean of both orientations;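 also: natural log of median RNA to DNA barcode read ratio; higher means stronger binding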
T3 chain: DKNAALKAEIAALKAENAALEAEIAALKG

[4] = target: T4, 4H3628-AA; experiment: two-hybrid library CCmax; details: mean of both orientations;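 also: natural log of median RNA to DNA barcode read ratio; higher means stronger binding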
T4 chain: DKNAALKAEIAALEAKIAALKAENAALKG

[5] = target: T5, 4H3417-AA; experiment: two-hybrid library CCmax; details: mean of both orientations;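 also: natural log of median RNA to DNA barcode read ratio; higher means stronger binding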
T5 chain: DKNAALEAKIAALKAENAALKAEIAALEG

[6] = target: T6, 4H497-AA; experiment: two-hybrid library CCmax; details: mean of both orientations;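 also: natural log of median RNA to DNA barcode read ratio; higher means stronger binding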
T6 chain: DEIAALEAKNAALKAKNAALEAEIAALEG

[7] = target: T7, 4H428-AA; experiment: two-hybrid library CCmax; details: mean of both orientations
T7 chain: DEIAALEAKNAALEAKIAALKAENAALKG

[8] = target: T8, 4H3102-AA; experiment: two-hybrid library CCmax
T8 chain: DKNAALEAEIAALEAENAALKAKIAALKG

[9] = target: T9, 4H3121-AA; experiment: two-hybrid library CCmax
T9 chain: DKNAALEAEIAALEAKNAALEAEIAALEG

[10] = target: T10, 4H391-AA; experiment: two-hybrid library CCmax; details: mean of both orientations
T10 chain: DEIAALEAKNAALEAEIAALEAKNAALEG

[11] = target: T11, 4H478-AA; experiment: two-hybrid library CCmax; details: mean of both orientations
T11 chain: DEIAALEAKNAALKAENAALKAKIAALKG

[12] = target: T12, 4H3939-AA; experiment: two-hybrid library CCmax; details: mean of both orientations
T12 chain: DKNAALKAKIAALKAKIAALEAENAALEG

[13] = target: T13, 4H3591-AA; experiment: two-hybrid library CCmax; details: mean of both orientations
T13 chain: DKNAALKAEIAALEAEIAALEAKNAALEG

[14] = target: T14, 4H3446-AA; experiment: two-hybrid library CCmax; details: mean of both orientations
T14 chain: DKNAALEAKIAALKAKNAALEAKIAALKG

[15] = target: T15, 4H3920-AA; experiment: two-hybrid library CCmax; details: mean of both orientations
T15 chain: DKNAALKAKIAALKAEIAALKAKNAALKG

[16] = target: T16, 4H656-AA; experiment: two-hybrid library CCmax; details: mean of both orientations
T16 chain: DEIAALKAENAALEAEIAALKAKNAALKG

[17] = target: T17, 4H971-AA; experiment: two-hybrid library CCmax; details: mean of both orientations
T17 chain: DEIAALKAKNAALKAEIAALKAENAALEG

[18] = target: GCN2_T; experiment: two-hybrid library CCmax; details: mean of both orientations
[19] = target: T18, 4H_APH; experiment: two-hybrid library CCmax; details: mean of both orientations
T18 chain: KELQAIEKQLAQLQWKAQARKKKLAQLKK

[20] = target: T19, 4H_BCR; experiment: two-hybrid library CCmax; details: mean of both orientations
T19 chain: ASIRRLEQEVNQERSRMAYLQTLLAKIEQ

[21] = target: 4H_GCN4; experiment: two-hybrid library CCmax
[22] = target: T20, 4H895-AA; experiment: two-hybrid library CCmax
T20 chain: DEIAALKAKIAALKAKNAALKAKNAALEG

[23] = target: T21, 4H932-bN; experiment: two-hybrid library CCNG1
T21 chain: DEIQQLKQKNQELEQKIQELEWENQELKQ

[24] = target: T22, 4H796-bN; experiment: two-hybrid library CCNG1
T22 chain: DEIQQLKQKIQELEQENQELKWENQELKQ

[25] = target: T23, 4H949-bN; experiment: two-hybrid library CCNG1
T23 chain: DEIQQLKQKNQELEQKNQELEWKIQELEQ

[26] = target: T24, 4H730-bN; experiment: two-hybrid library CCNG1
T24 chain: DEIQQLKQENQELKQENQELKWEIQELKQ

[27] = target: T25, 4H850-bN; experiment: two-hybrid library CCNG1
T25 chain: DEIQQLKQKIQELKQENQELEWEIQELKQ

[28] = target: T26, 4H906-bN; experiment: two-hybrid library CCNG1
T26 chain: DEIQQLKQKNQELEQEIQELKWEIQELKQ

[29] = target: T27, 4H619-bN; experiment: two-hybrid library CCNG1
T27 chain: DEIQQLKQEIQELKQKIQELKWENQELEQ

[30] = target: T28, 4H4033-AA; experiment: two-hybrid library CCmax
T28 chain: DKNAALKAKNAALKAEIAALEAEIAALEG

[31] = target: T29, 4H55-AA; experiment: two-hybrid library CCmax; details: mean of both orientations
T29 chain: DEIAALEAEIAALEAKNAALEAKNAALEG

[32] = target: T30, 4H662-AA; experiment: two-hybrid library CCmax; details: mean of both orientations
T30 chain: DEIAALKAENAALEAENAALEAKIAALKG

[33] = target: T31, 4H3922-AA; experiment: two-hybrid library CCmax
T31 chain: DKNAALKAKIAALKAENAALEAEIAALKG

[34] = target: T32, 4H481-AA; experiment: two-hybrid library CCmax; details: mean of both orientations
T32 chain: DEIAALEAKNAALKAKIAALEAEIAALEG

[35] = target: T33, 4H730-bH; experiment: two-hybrid library CCNG1
T33 chain: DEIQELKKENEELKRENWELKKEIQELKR

[36] = target: T34, 4H796-bH; experiment: two-hybrid library CCNG1
T34 chain: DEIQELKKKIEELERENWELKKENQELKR

[37] = target: T35, 4H949-bH; experiment: two-hybrid library CCNG1
T35 chain: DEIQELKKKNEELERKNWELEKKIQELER

[38] = target: T36, 4H932-bH; experiment: two-hybrid library CCNG1
T36 chain: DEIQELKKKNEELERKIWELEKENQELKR

[39] = target: T37, 4H967-bH; experiment: two-hybrid library CCNG1
T37 chain: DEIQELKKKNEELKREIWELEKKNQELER

[40] = target: T38, 4H883-bH; experiment: two-hybrid library CCNG1
T38 chain: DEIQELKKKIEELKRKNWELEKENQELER

[41] = target: T39, 4H687-bH; experiment: two-hybrid library CCNG1
T39 chain: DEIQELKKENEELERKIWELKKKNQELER

[42] = target: T40, 4H918-bH; experiment: two-hybrid library CCNG1
T40 chain: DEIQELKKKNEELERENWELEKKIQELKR

[43] = target: T41, 4H72-bH; experiment: two-hybrid library CCNG1
T41 chain: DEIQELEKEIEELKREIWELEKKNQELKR

[44] = target: T42, 4H717-bH; experiment: two-hybrid library CCNG1
T42 chain: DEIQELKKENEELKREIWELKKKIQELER

[45] = target: T43, 4H908-bH; experiment: two-hybrid library CCNG1
T43 chain: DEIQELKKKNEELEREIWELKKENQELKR

[46] = target: T44, 4H797-bH; experiment: two-hybrid library CCNG1
T44 chain: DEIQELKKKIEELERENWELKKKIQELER

[47] = target: T45, 4H607-bH; experiment: two-hybrid library CCNG1
T45 chain: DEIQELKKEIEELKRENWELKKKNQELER

[48] = target: T46, 4H454-bH; experiment: two-hybrid library CCNG1
T46 chain: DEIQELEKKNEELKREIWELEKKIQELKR

[49] = target: T47, 4H754-bH; experiment: two-hybrid library CCNG1
T47 chain: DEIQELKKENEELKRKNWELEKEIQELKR

[50] = target: T48, 4H568-bH; experiment: two-hybrid library CCNG1
T48 chain: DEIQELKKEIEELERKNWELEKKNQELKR

[51] = target: T49, 4H953-bH; experiment: two-hybrid library CCNG1
T49 chain: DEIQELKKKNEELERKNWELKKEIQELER

[52] = target: T50, P9; experiment: two-hybrid library CC1
T50 chain: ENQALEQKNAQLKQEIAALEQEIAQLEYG

Chain of 4H_GCN4 (chain, as listed by the source): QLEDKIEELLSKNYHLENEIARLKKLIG

## DKNAALEAEIAALEAENAALKAKIAALKG [4H3102-AA]
[1]
  interaction score: 1.43
[2]; mean of both orientations
  interaction score: -0.00286
[3]
  interaction score: 1.73
[4]
  interaction score: -0.57
[5]
  interaction score: 2.29
[6]
  interaction score: -1.18
[7]
  interaction score: 0.651
[8]
  interaction score: 1.69
[9]; mean of both orientations
  interaction score: -0.0964
[10]
  interaction score: -0.9
[11]
  interaction score: 1.81
[12]
  interaction score: -1.39
[13]
  interaction score: -1.16
[14]
  interaction score: 0.0866
[15]
  interaction score: -1.16
[16]
  interaction score: 0.534
[17]
  interaction score: -0.422

## DEIAALKAKIAALKAKNAALKAKNAALEG [4H895-AA]
[18]
  interaction score: -1.25
[19]
  interaction score: -1.22
[20]
  interaction score: -2.06
[21]
  interaction score: -1.86
[22]
  interaction score: -1.19

## DEIQQLKQENQELKQENQELKWEIQELKQ [4H730-bN]
[23]
  interaction score: -0.353
[24]
  interaction score: -1.29
[25]
  interaction score: -0.718
[26]
  interaction score: 1.55

## DEIQQLKQEIQELKQKIQELKWENQELEQ [4H619-bN]
[27]
  interaction score: -0.223
[28]
  interaction score: -0.494
[29]
  interaction score: 1.24

## DKNAALKAKIAALKAENAALEAEIAALKG [4H3922-AA]
[30]; mean of both orientations
  interaction score: -0.495
[31]
  interaction score: -1.32
[32]
  interaction score: -1.16
[33]
  interaction score: -0.436
[34]
  interaction score: 1.69

## DKNAALEAEIAALEAKNAALEAEIAALEG [4H3121-AA]
[1]
  interaction score: -0.104
[2]
  interaction score: -2.08
[3]
  interaction score: -0.746
[4]
  interaction score: -1.32
[5]
  interaction score: -1.39
[6]
  interaction score: -1.74
[7]
  interaction score: -0.865
[9]
  interaction score: -1.24
[10]
  interaction score: -1.89
[11]
  interaction score: -0.966
[12]
  interaction score: -1.9
[13]
  interaction score: -1.55
[14]
  interaction score: 1.8
[15]
  interaction score: -1.06
[16]
  interaction score: -1.6
[17]
  interaction score: -1.39

## DEIQQLKQKIQELEQENQELKWENQELKQ [4H796-bN]
[23]
  interaction score: 0.298
[24]
  interaction score: 1.8
[25]
  interaction score: -0.619

## DEIQELKKENEELKRENWELKKEIQELKR [4H730-bH]
[35]
  interaction score: 1.5
[36]
  interaction score: -0.301
[37]
  interaction score: 0.0896
[38]
  interaction score: -1.05

## DKNAALKAKNAALKAEIAALEAEIAALEG [4H4033-AA]
[30]
  interaction score: -1.66
[31]
  interaction score: -1.39
[32]
  interaction score: 1.17
[34]
  interaction score: -1.15

## DEIQELEKKNEELKREIWELEKKIQELKR [4H454-bH]
[39]
  interaction score: 0.69
[40]
  interaction score: -1.26
[41]
  interaction score: 1.81
[42]
  interaction score: -1.05
[43]
  interaction score: 0.203
[44]
  interaction score: 0.664
[45]
  interaction score: -0.536
[46]
  interaction score: -0.829
[47]
  interaction score: -1.61
[48]
  interaction score: 1.6
[49]
  interaction score: 0.236
[50]
  interaction score: 0.197
[51]
  interaction score: 1.26

## DEIQELKKKIEELERENWELKKENQELKR [4H796-bH]
[36]
  interaction score: 1.25
[37]
  interaction score: -0.00426
[38]
  interaction score: -0.89

## ENQALEQKNAQLKQEIAALEQEIAQLEYG [P9]
[52]
  interaction score: -2.32

Source: publication PMC10397247
